Measurements taken from the supplement of paper PMC12764529.
± gives the half width of the 95% confidence interval.

Experiments:
[1] = folding stability dG unfold from trypsin proteolysis; higher = more stable
Summary of the method: (§1)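 How resistant each design was to proteolysis was captured as K50, inferred by Bayesian fitting of sequencing counts. Unfolding free energy was then derived relative to a sequence-predicted unfolded-state K50 and a shared folded-state K50, per protease or combined. Digestion used trypsin and chymotrypsin at 11 threefold-diluted concentrations plus a no-protease condition, on mini-proteins under 80 residues without cysteine in a PA-tagged cDNA display construct. Designs were kept only when AlphaFold2 dimer inter-PAE was above 15.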

[2] = folding stability dG unfold from chymotrypsin proteolysis; higher = more stable
Summary of the method: as §1

[3] = folding stability dG unfold (combined trypsin and chymotrypsin); higher = more stable
Summary of the method: as §1

Row | Sequence | folding stability dG unfold [1] [kcal/mol] | folding stability dG unfold [2] [kcal/mol] | folding stability dG unfold [3] [kcal/mol]
1 | SAGGSAGGSPSVPPEWKVEIVEVTVHPDGSTVTAVIRFEDGSTVTVNSPEALARLVEGGNVVNSAGGSAGGS [r12_455_TrMRF] | 1.12 ± 0.047 | 1.62 ± 0.11 | 1.51 ± 0.14
2 | SAGGSAGGSPSVVTLVSPDYYAEAFYFPDFVLVVLYDPEKGPPQVFLVSNENGELKFFPASEASAGGSAGGS [r12_632_TrMRF] | 2.28 ± 0.18 | 3.24 ± 0.059 | 2.85 ± 0.18
3 | SAGGSAGGSPWRRIPISSPEQILDWLEEMLPPGFNLTPEMAEQMVDYFLKNFEVDPNGYLWVRSAGGSAGGS [r12_983_TrROS] | 2.11 ± 0.051 | 1.82 ± 0.21 | 1.89 ± 0.14
4 | SAGGSAGGSRIVIHWDPDGMFMIEIRDPGESRTFMFDGPEEAENFADKIEDKLGLPVEVTEIYSAGGSAGGS [r12_783_TrROS] | 0.69 ± 0.024 | 0.681 ± 0.11 | 0.747 ± 0.099
5 | SAGGSAGGSRIVRNPDGWYYVRIESPEKGQERYIWIPKGNAEEIADPFGIRNVSIYRPDEPIPSAGGSAGGS [r12_294_TrROS] | 0.427 ± 0.15 | 1.28 ± 0.34 | 0.937 ± 0.19
6 | SAGGSAGGSRKIPIWIPPGMPPEQLEHFVRFIAGENGWKIKSVEIKDVDPANNWVKIDIEVKWSAGGSAGGS [r12_168_TrROS] | 2.16 ± 0.094 | 2.9 ± 0.093 | 2.67 ± 0.11
7 | SAGGSAGGSSAEEVAASYPVTEVEYDPVTNTTTVTAEFPDSRIVLTYDPATGTVTTEVLPPLRSAGGSAGGS [r12_214_JUSTAS] | 0.508 ± 0.018 | 0.749 ± 0.035 | 0.654 ± 0.17
8 | SAGGSAGGSSDEPLVIPVTAVFVNPETGEVTVARAEVRLPPDGGLEVDVEVEVREVEPDAPLLSAGGSAGGS [r12_116_TrMRF] | 0.964 ± 0.025 | 1.47 ± 0.036 | 1.2 ± 0.14
9 | SAGGSAGGSSEKAEELLERLRELLPPEEIRRVEVRDGKIVIEVSPEAARRLAEELGLDEIEIVSAGGSAGGS [r12_748_TrROS_Hall] | 2.53 ± 0.09 | 2.22 ± 0.071 | 2.49 ± 0.074
10 | SAGGSAGGSSELKVVELTTEPGKYLVVTLPDGTVVVLPPGAPLPLGDGEPATVEVVPEEELRSSAGGSAGGS [r12_39_JUSTAS] | 0.413 ± 0.041 | 0.85 ± 0.022 | 0.705 ± 0.046
11 | SAGGSAGGSSFEITVYHPDKGKPFKAKVDIEPELVDGDGKPVLVYKAKITIGDKPFEAVFVLNSAGGSAGGS [r20_39_TrMRF] | 2.14 ± 0.08 | 2.89 ± 0.043 | 2.63 ± 0.14
12 | SAGGSAGGSSGPTLTIRYSILVSDSDGNWYALVFEARIYPNGDVEIRYRLYSYKDIPPGASPTSAGGSAGGS [r12_38_TrMRF] | 4.12 ± 0.16 | 4.85 ± 0.093 | 4.7 ± 0.067
13 | SAGGSAGGSSIEEEYAANPENVTVTLPSPGGTPASTITVGNAPVTVTPLPDGDSAVTLDPANKSAGGSAGGS [r12_805_JUSTAS] | 0.727 ± 0.045 | 1.69 ± 0.035 | 1.4 ± 0.043
14 | SAGGSAGGSSKAEELAKKLGVKVKIIDKFTLPGNKKVILAKVKFPGKGYALVLYDGKTPVLLPSAGGSAGGS [r12_279_TrMRF] | 1.97 ± 0.07 | 1.86 ± 0.099 | 1.96 ± 0.087
15 | SAGGSAGGSSLEEIKAAAEEAVAAGHPVLTVTSGSGKVVTVEVGESPIESAGPLDGVTVTLTGSAGGSAGGS [r20_44_JUSTAS] | 1.02 ± 0.056 | 0.443 ± 0.038 | 0.723 ± 0.073
16 | SAGGSAGGSSLTVTYDPSTGTLTITVPEDQTSVKIKYGDKTYTVPLPPGQTFTVPANTFTLESSAGGSAGGS [r20_26_TrMRF] | 0.745 ± 0.071 | 1.54 ± 0.08 | 1.29 ± 0.11
17 | SAGGSAGGSSMTLTIEPPEEGPPLLVEVDETEEIVTGDGTPVKVTTLKITIGEEEMTLTVTTLSAGGSAGGS [r20_39_JUSTAS] | 1.71 ± 0.098 | 2.46 ± 0.057 | 2.1 ± 0.15
18 | SAGGSAGGSSMTLTSEKTEKFTEGSKEFLKKTETWKLPGNSTLTKETIIDPSSDKYKEKISLLSAGGSAGGS [r12_1035_JUSTAS] | -0.727 ± 0.24 | -0.0253 ± 0.24 | -0.159 ± 0.18
19 | SAGGSAGGSSMTLTTLEVNPSVTIEPQPGSIVVKTPVTTLVKAGDTLVTLESESITVLPPDLLSAGGSAGGS [r12_1023_JUSTAS] | 0.486 ± 0.048 | 1.2 ± 0.036 | 1.03 ± 0.062
20 | SAGGSAGGSSMYTYPELGVKVTTTPLPTDSTLVTATFPDGSVYKFTVDPSGNLVTSTPIVVNSSAGGSAGGS [r12_56_JUSTAS] | 0.326 ± 0.018 | 1.01 ± 0.064 | 0.784 ± 0.06
21 | SAGGSAGGSSNGITLKKPGGIEIKLPKPPSVKPVTVTTTFVFTTPDGKLVFVPKTTTLPPSLLSAGGSAGGS [r12_1027_JUSTAS] | 1.59 ± 0.15 | 2.25 ± 0.2 | 1.83 ± 0.29

Row | Sequence | folding stability dG unfold [1] [kcal/mol] | folding stability dG unfold [2] [kcal/mol] | folding stability dG unfold [3] [kcal/mol]
22 | SAGGSAGGSSPDNKPVPPRFMIHVEIEPIKIPPEMREAAKDDPDNIDEIYVITIDVYFVGDDFSAGGSAGGS [r12_196_TrROS] | 2.22 ± 0.063 | 2.81 ± 0.07 | 2.58 ± 0.074
23 | SAGGSAGGSSPLIEKLRKDPNVTKIEIDTVKNTTYIYTPNKIYIINSKGEIEKVEEVSPEILKSAGGSAGGS [r12_895_JUSTAS] | 0.743 ± 0.067 | 2.36 ± 0.072 | 1.81 ± 0.17
24 | SAGGSAGGSSPLLEAALEIAKTLPPDSEVELPILNPETGTFVRVRVVYDEETGEFKVESVEFSSAGGSAGGS [r12_186_TrMRF] | 1.5 ± 0.018 | 1.44 ± 0.12 | 1.54 ± 0.1
25 | SAGGSAGGSSPVRTLTIPTENLTPEEILELVKNNPVDSVVLNADSEEEEKLKEELKKAGIKVLSAGGSAGGS [r12_610_JUSTAS] | -0.501 ± 0.071 | 0.138 ± 0.15 | -0.0698 ± 0.098
26 | SAGGSAGGSSSMTLTTDDGSTLDSVTRDPNSDTATVTYSGSGETVTATATTLPDGSVVVTVVTSAGGSAGGS [r12_839_JUSTAS] | 1.26 ± 0.054 | 0.784 ± 0.092 | 1.08 ± 0.11
27 | SAGGSAGGSSSVVSTLEETPDSVVEKVETPDPIIVERVPLPDGTVEVRVFKPDGTPISISTLGSAGGSAGGS [r12_1061_JUSTAS] | 0.99 ± 0.036 | 0.0395 ± 0.18 | 0.507 ± 0.12
28 | SAGGSAGGSSTLTLTVRVEVTVEVDGKTYTFTAELTLTVELPPLPEEDLKLYRTDDGELRLVRSAGGSAGGS [r12_1031_TrROS_Hall] | 2.94 ± 0.21 | 2.91 ± 0.24 | 2.88 ± 0.47
29 | SAGGSAGGSSVKAKLLSYSRDPTSDLVSVELLIEKSSETIPITLTVPPSEVQPGATITIEIRPSAGGSAGGS [r12_76_JUSTAS] | -0.616 ± 0.16 | 0.609 ± 0.11 | 0.289 ± 0.072
30 | SAGGSAGGSSVTLTFTGGNSEVTVELDAGGEGGFLARVTVVTESDGKLETVEADFYLGSLPGLSAGGSAGGS [r12_769_TrMRF] | 2.75 ± 0.13 | 3.77 ± 0.065 | 3.29 ± 0.13
31 | SAGGSAGGSTILDALEKGFEITDIEPNNDGPYMLTVRNPEEGYRVTIMIHPNGDIMIQVQPVPSAGGSAGGS [r12_166_TrROS] | 1.83 ± 0.075 | 2.19 ± 0.042 | 2.06 ± 0.1
32 | SAGGSAGGSTITFFFDNPEQIEKLIEELMDKNNVEVEVEPHPDNGMPMVTFTNPNNGKEITIMSAGGSAGGS [r12_635_TrROS] | 0.48 ± 0.057 | 0.497 ± 0.23 | 0.54 ± 0.21
33 | SAGGSAGGSTIVIRLSKEELENMTAEELAEALAEEGAEVTVTVEYDEETDELVVTIEIHPEDLSAGGSAGGS [r12_716_TrROS_Hall] | 2.12 ± 0.12 | 2.01 ± 0.063 | 2.11 ± 0.13
34 | SAGGSAGGSTLEEVRKIAEEAVKKGYPYVVISAPGGLKKVFKVEEDDIVEIPDSEGYTVELLSSAGGSAGGS [r20_44_TrMRF] | 0.202 ± 0.07 | 0.85 ± 0.14 | 0.52 ± 0.12
35 | SAGGSAGGSTLRLRFRTPDGRLFEIEAEVRPDPDGRVYRLLRIREYDPETDEWLERPFRLPILSAGGSAGGS [r12_57_TrMRF] | 3.77 ± 0.12 | 3.83 ± 0.019 | 3.82 ± 0.056
36 | SAGGSAGGSTPTEFAKNLNVTEVKYDPVKKTVRVIHEFEDYLVLVEYDPSTGEVRVEVFSKDESAGGSAGGS [r12_214_TrMRF] | 1.4 ± 0.12 | 2.05 ± 0.12 | 1.84 ± 0.24
37 | SAGGSAGGSTTLTVDLPFGPATVHITGLPDSFVAFIEFDNPPFRATATIKEISKNGIVIEDIDFSAGGSAGG [r6_982_TrMRF] | 2.2 ± 0.086 | 1.9 ± 0.13 | 2.1 ± 0.22
38 | SAGGSAGGSVITLPNGVKLVTVKVSRPELDETETVTVPLEGMTLEEIKERLKKEGYKEVVFLESAGGSAGGS [r12_792_JUSTAS] | 1.19 ± 0.032 | 1.28 ± 0.036 | 1.26 ± 0.077
39 | SAGGSAGGSVKPGEKVLVRVRNPATGRWEEVVATVNEDGSITIYNKETGKTETIPLKDIELVPSAGGSAGGS [r12_726_TrROS_Hall] | 4.6 ± 0.17 | 4.25 ± 0.055 | 4.37 ± 0.088
40 | SAGGSAGGSWMLMVKIEFPENGQERHFMLPPGMTIEDIADRLREDGAPIKDIEVQWMPLPPGDSAGGSAGGS [r12_955_TrROS] | 1.47 ± 0.033 | 1.62 ± 0.086 | 1.62 ± 0.072
41 | SAGGSAGGSWYLRIEYMNGKEREFPFPPDMPGQPAEEIADKLGSPNMKVEFYDPEGEPREFDISAGGSAGGS [r12_411_TrROS] | 0.589 ± 0.071 | 0.754 ± 0.13 | 0.726 ± 0.18
42 | SAGGSAGGTAEELARKLEEALREAGYEVEKIEVVRVERKGDKVTIEVRVTLPDGRKLELRIELDSAGGSAGG [r6_839_TrROS_Hall] | 4.09 ± 0.3 | 3.22 ± 0.13 | 3.67 ± 0.21
